The record followed here is IntAct's records for PubMed 11583623.

B1: Serine protease HTRA2, mitochondrial (Homo sapiens), O43464 (parent)
chain: MAAPRAGRGAGWSLRAWRALGGIRWGRRPRLTPDLRALLTSGTSDPRARVTYGTPSLWARLSVGVTEPRACLTSGTPGPRAQLTAVTPDTRTREASENSGTRSRAWLAVALGAGGAVLLLLWGGGRGPPAVLAAVPSPPPASPRSQYNFIADVVEKTAPAVVYIEILDRHPFLGREVPISNGSGFVVAADGLIVTNAHVVADRRRVRVRLLSGDTYEAVVTAVDPVADIATLRIQTKEPLPTLPLGRSADVRQGEFVVAMGSPFALQNTITSGIVSSAQRPARDLGLPQTNVEYIQTDAAIDFGNSGGPLVNLDGEVIGVNTMKVTAGISFAIPSDRLREFLHRGEKKNSSSGISGSQRRYIGVMMLTLSPSILAELQLREPSFPDVQHGVLIHKVILGSPAHRAGLRPGDVILAIGEQMVQNAEDVYEAVRTQSQLAVQIRRGRETLTLYVTPEVTE

Variants of B1 are the subject of this assay. To be noted: with xiap_human XIAP.
Consider MAAPRAGRGAGWSLRAWRALGGIRWGRRPRLTPDLRALLTSGTSDPRARVTYGTPSLWARLSVGVTEPRACLTSGTPGPRAQLTAVTPDTRTREASENSGTRSRAWLAVALGAGGAVLLLLWGGGRGPPAVLAMVPSPPPASPRSQYNFIADVVEKTAPAVVYIEILDRHPFLGREVPISNGSGFVVAADGLIVTNAHVVADRRRVRVRLLSGDTYEAVVTAVDPVADIATLRIQTKEPLPTLPLGRSADVRQGEFVVAMGSPFALQNTITSGIVSSAQRPARDLGLPQTNVEYIQTDAAIDFGNSGGPLVNLDGEVIGVNTMKVTAGISFAIPSDRLREFLHRGEKKNSSSGISGSQRRYIGVMMLTLSPSILAELQLREPSFPDVQHGVLIHKVILGSPAHRAGLRPGDVILAIGEQMVQNAEDVYEAVRTQSQLAVQIRRGRETLTLYVTPEVTE [A134M], for which the “effect of a mutation on the interaction” value is on record as “disrupting interaction”.
